Experimental data as given in patent US20040077031.

Tests used:
[1] = molecular target: T1, MAS (methionine-alanine-serine) trimeric peptide
T1 chain: MAS

[2] = molecular target: T2, MGAQFSKT (MARCKS protein) octameric peptide
T2 chain: MGAQFSKT

[3] = molecular target: T3, MGK peptide
T3 chain: MGK

[4] = molecular target: T4, MGKV peptide
T4 chain: MGKV

[5] = molecular target: T5, MGKVK peptide
T5 chain: MGKVK

[6] = molecular target: T6, MGKVKV peptide
T6 chain: MGKVKV

[7] = molecular target: T7, MGKVKVG (GADPH) peptide
T7 chain: MGKVKVG

[8] = molecular target: T8, MGKVKVGVN peptide
T8 chain: MGKVKVGVN

[9] = molecular target: T9, MGKVKVGVNG peptide
T9 chain: MGKVKVGVNG

[10] = molecular target: T10, MGKVKVGVNGF peptide
T10 chain: MGKVKVGVNGF

[11] = molecular target: T11, MGNAAAAK (PKC a) octameric peptide
T11 chain: MGNAAAAK

[12] = molecular target: T12, MGNLKSVA (eNOS) octameric peptide
T12 chain: MGNLKSVA

[13] = molecular target: T13, MGSSKSKP (Src p60) octameric peptide
T13 chain: MGSSKSKP

B1: recombinant human methionine aminopeptidase type 2 (MetAP2) with N-terminal histidine tag (protein)
chain: MAGVEEVAASGSHLNGDLDPDDREEGAASTAEEAAKKKRRKKKKSKGPSAAGEQEPDKESGASVDEVARQLERSALEDKERDEDDEDGDGDGDGATGKKKKKKKKKRGPKVQTDPPSVPICDLYPNGVFPKGQECEYPPTQDGRTAAWRTTSEEKKALDQASEEIWNDFREAAEAHRQVRKYVMSWIKPGMTMIEICEKLEDCSRKLIKENGLNAGLAFPTGCSLNNCAAHYTPNAGDTTVLQYDDICKIDFGTHISGRIIDCAFTVTFNPKYDTLLKAVKDATNTGIKCAGIDVRLCDVGEAIQEVMESYEVEIDGKTYQVKPIRNLNGHSIGQYRIHAGKTVPIVKGGEATRMEEGEVYAIETFGSTGKGVVHDDMECSHYMKNFDVGHVPIRLPRTKHLLNVINENFGTLAFCRRWLDRLGESKYLMALKNLCDLGIVDPYPPLCDIKGSYTAQFEHTILLRPTCKEVVSRGDDY
Which Km [1] does the source give for B1 here?
The Km was 212 µM.

And the “baseline activity (turnover, no added metal)” value [1]?
Its value is 0.19 µM/min turnover of MAS at 60 nM MetAP2.

And the “enzymatic cleavage of peptide substrate” value [1]?
The value was “showed enzymatic activity in cleaving a tripeptide MAS substrate”.

And the kcat [1]?
The kcat was 2.54 s⁻¹.

And the kcat/Km [1]?
The kcat/Km was 0.72.

And the Km [2]?
Its Km is 224 µM.

And the “baseline activity (turnover, no added metal)” value [2]?
The value was 0.12 µM/min turnover of MGAQFSKT at 30 nM MetAP2.

What about the kcat [2] of the same protein?
Its kcat is 4.87 s⁻¹.

And the kcat/Km [2]?
The kcat/Km was 1.3.

And the Km [3]?
Its Km is 758 µM.

And the kcat [3]?
Its kcat is 3.32 s⁻¹.

What about the kcat/Km [3] of the same protein?
Its kcat/Km is 0.3.

What about the Km [4] of the same protein?
The Km was 624 µM.

What about the kcat [4] of the same protein?
Its kcat is 6.7 s⁻¹.

What about the kcat/Km [4] of the same protein?
Its kcat/Km is 0.6.

What about the Km [5] of the same protein?
Its Km is 188 µM.

What about the kcat [5] of the same protein?
The kcat was 10.4 s⁻¹.

And the kcat/Km [5]?
The kcat/Km was 3.3.

What about the Km [6] of the same protein?
Its Km is 149 µM.

And the kcat [6]?
The kcat was 8.53 s⁻¹.

And the kcat/Km [6]?
Its kcat/Km is 3.4.

And the Km [7]?
Its Km is 215 µM.

What about the kcat [7] of the same protein?
The kcat was 9.56 s⁻¹.

What about the kcat/Km [7] of the same protein?
The kcat/Km was 2.7.

And the Km [8]?
Its Km is 205 µM.

And the kcat [8]?
The kcat was 10.2 s⁻¹.

And the kcat/Km [8]?
Its kcat/Km is 3.

And the Km [9]?
The Km was 164 µM.

What about the kcat [9] of the same protein?
Its kcat is 10.2 s⁻¹.

What about the kcat/Km [9] of the same protein?
Its kcat/Km is 3.7.

What about the Km [10] of the same protein?
The Km was 131 µM.

And the kcat [10]?
The kcat was 9.43 s⁻¹.

What about the kcat/Km [10] of the same protein?
Its kcat/Km is 4.3.

What about the Km [11] of the same protein?
The Km was 260 µM.

What about the kcat [11] of the same protein?
Its kcat is 3.78 s⁻¹.

What about the kcat/Km [11] of the same protein?
The kcat/Km was 0.9.

What about the Km [12] of the same protein?
The Km was 208 µM.

What about the kcat [12] of the same protein?
The kcat was 4.87 s⁻¹.

What about the kcat/Km [12] of the same protein?
Its kcat/Km is 1.4.

What about the Km [13] of the same protein?
Its Km is 233 µM.

What about the kcat [13] of the same protein?
Its kcat is 3.94 s⁻¹.

And the kcat/Km [13]?
The kcat/Km was 1.
